Laboratory results taken from the supplement of paper PMC10724198.
± gives the standard deviation of the averaged measurements.

System: Saccharomyces cerevisiae
Assay: protein stability index of tFT-peptide fusion (C-terminal peptide) (PSI (0-1 scale)); higher = more stable (slower turnover)
Conditions: genetic background: das1 deletion; temperature: 37 C
Experimental: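 MPS profiling in S. cerevisiae of the tFT-X12 degron library: putative degron peptides plus stable controls, 12 aa, fused to the C-terminus of a sfGFP-mCherry timer. Cells are FACS-sorted into 8 mCherry/sfGFP bins and deep-sequenced. PSI runs from 0 (unstable) to 1 (stable). Backgrounds are wild type, das1Δ and doa10Δ at 30 °C, and wild type, das1Δ, cdc34-1 and cdc53-1 at 37 °C; 2-3 technical replicates each.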
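Note: PSI is a weighted mean of sequencing reads over stability bins, variants kept only with over 10 reads, mCherry proximal and sfGFP distal, peptide attached via GGGS linker.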

| Sequence | protein stability index |
| --- | --- |
| FLIFGMVDFAVV | 0.3883 ± 0.0012 |
| FLIFVVIGGVGL | 0.466 ± 0.013 |
| FLLELRFTCSYS | 0.4415 ± 0.00066 |
| FLLFFVLRLLPC | 0.396 ± 0.016 |
| FLPGEAVFVYCR | 0.627 ± 0.011 |
| FLSVGFSCSFVC | 0.669 ± 0.04 |
| FLSVLPLFAFFA | 0.68 ± 0.028 |
| FLVCTFCRWVWL | 0.606 ± 0.025 |
| FLVFPLLIQFFL | 0.4346 ± 0.0039 |
| FPLGAQTWLCLS | 0.729 ± 0.022 |
| FPLPPPGSPPPL | 0.735 ± 0.0085 |
| FRFFYLPVSVVA | 0.1275 ± 0.00029 |
| FRHKLSLGLVIV | 0.56 ± 0.0072 |
| FRYLRPAFLLLH | 0.442 ± 0.0055 |
| FSALAPTPLLPL | 0.739 ± 0.016 |
| FSFCFCFPLSSL | 0.6285 ± 0.0038 |
| FSPSPVFVTCRV | 0.343 ± 0.0046 |
| FTRLDYKRIKIV | 0.768 ± 0.068 |
| FVEFCFWCFWVV | 0.578 ± 0.026 |
| FVICGMLVHWMV | 0.58244 ± 0.00049 |
| FVLLCVLEFVAG | 0.299 ± 0.0013 |
| FVVFLLFFMLYH | 0.4366 ± 0.0024 |
| FVVFYFFLLFGV | 0.454 ± 0.023 |
| FVVVCWFWGGGF | 0.465 ± 0.013 |
| FWMLCFLCRLTV | 0.459 ± 0.011 |
| FWVNFLFVLFIL | 0.4 ± 0.027 |

| Sequence | protein stability index |
| --- | --- |
| FYACRLWLVSVR | 0.313 ± 0.0039 |
| GACRVSSCVVVC | 0.571 ± 0.0072 |
| GAFAGDVWRCVV | 0.778 ± 0.014 |
| GALWVLGVVVGG | 0.537 ± 0.0094 |
| GAVRRWGWVSFV | 0.744 ± 0.013 |
| GAVVYGICFCTN | 0.637 ± 0.027 |
| GCLVVVGFFSVF | 0.458 ± 0.028 |
| GCVLVFFLRLDL | 0.557 ± 0.034 |
| GFALGSFMLVLR | 0.0844 ± 0.0018 |
| GFCFVFVFQCFF | 0.431 ± 0.0031 |
| GFFFLFFVSAFI | 0.485 ± 0.011 |
| GFFFYFVLFGLS | 0.47314 ± 0.00013 |
| GFISKLIIKLAA | 0.5511 ± 0.0043 |
| GFVLMLLVRFEL | 0.474 ± 0.015 |
| GGFRVLLWCVVW | 0.399 ± 0.0044 |
| GGGEGVVWVRLG | 0.737 ± 0.009 |
| GGGWCEMLIVVG | 0.5495 ± 0.0039 |
| GGRFVWIVRAVG | 0.73 ± 0.022 |
| GGRHYGILDLSL | 0.719 ± 0.024 |
| GGVSPRSSMDLL | 0.736 ± 0.029 |
| GGVWVLGVAVVW | 0.349 ± 0.017 |
| GGWSFSSLWKIA | 0.8379 ± 0.0033 |
| GIGVVWLDVFKT | 0.537 ± 0.011 |
| GIKLNVVYILLG | 0.644 ± 0.017 |
| GKHILLISLNIT | 0.5 ± 0.013 |
| GKVSSFVLFHIS | 0.7502 ± 0.0042 |

| Sequence | protein stability index |
| --- | --- |
| GLAVLSWLYIEL | 0.598 ± 0.013 |
| GLCFRVCIWVFV | 0.364 ± 0.0058 |
| GLGWLLFVVERV | 0.552 ± 0.011 |
| GLSLLLLWFKVC | 0.463 ± 0.014 |
| GLSVFFFVGFIF | 0.526 ± 0.021 |
| GLVSCWIDPSMA | 0.73 ± 0.025 |
| GPCRPWIVVYAG | 0.5831 ± 0.0018 |
| GPWVIFSHLLLT | 0.546 ± 0.013 |
| GRFGVGVVFRLA | 0.719 ± 0.01 |
| GRGRGGRWGRLC | 0.75048 ± 0.00029 |
| GRLRLGVLCGGV | 0.655 ± 0.018 |
| GRVFSSFFLYIS | 0.184 ± 0.011 |
| GRVYLLGLYMSF | 0.525 ± 0.064 |
| GSLGHCWFLFGV | 0.461 ± 0.0075 |
| GSLHVISVVGML | 0.695 ± 0.018 |
| GSVLWISCLIFC | 0.349 ± 0.0061 |
| GTHWARLGWLLA | 0.724 ± 0.022 |
| GVAFGLLVWLLG | 0.5307 ± 0.0018 |
| GVGAISLGFSWL | 0.7855 ± 0.0022 |
| GWLRHGWWRTVG | 0.734 ± 0.011 |
| GWMLVVWCGVFG | 0.338 ± 0.011 |
| GYAFPPPHRVRT | 0.7288 ± 0.0051 |
| GYLVFTLRWLRG | 0.507 ± 0.016 |
| GYTVYARRLIMC | 0.382 ± 0.021 |
| GYVVYRRYILIR | 0.131 ± 0.026 |
| HCSRMIIIFLFL | 0.488 ± 0.039 |

Same assay, conditions: genetic background: doa10 deletion; temperature: 30 C

| Sequence | protein stability index |
| --- | --- |
| FLIFGMVDFAVV | 0.202 ± 0.0019 |
| FLIFVVIGGVGL | 0.2268 ± 0.0012 |
| FLLELRFTCSYS | 0.403 ± 0.013 |
| FLLFFVLRLLPC | 0.255 ± 0.013 |
| FLPGEAVFVYCR | 0.365 ± 0.017 |
| FLSVGFSCSFVC | 0.375 ± 0.024 |
| FLSVLPLFAFFA | 0.219 ± 0.011 |
| FLVCTFCRWVWL | 0.165 ± 0.023 |
| FLVFPLLIQFFL | 0.346 ± 0.0097 |
| FPLGAQTWLCLS | 0.199 ± 0.0021 |
| FPLPPPGSPPPL | 0.682 ± 0.0071 |
| FRFFYLPVSVVA | 0.105 ± 0.02 |
| FRHKLSLGLVIV | 0.347 ± 0.012 |
| FRYLRPAFLLLH | 0.0693 ± 0.00084 |
| FSALAPTPLLPL | 0.662 ± 0.029 |
| FSFCFCFPLSSL | 0.209 ± 0.011 |
| FSPSPVFVTCRV | 0.182 ± 0.0066 |
| FTRLDYKRIKIV | 0.0655 ± 0.014 |
| FVEFCFWCFWVV | 0.351 ± 0.022 |
| FVICGMLVHWMV | 0.321 ± 0.0041 |
| FVLLCVLEFVAG | 0.131 ± 0.004 |
| FVVFLLFFMLYH | 0.311 ± 0.004 |
| FVVFYFFLLFGV | 0.289 ± 0.006 |
| FVVVCWFWGGGF | 0.257 ± 0.012 |
| FWMLCFLCRLTV | 0.2213 ± 0.0021 |
| FWVNFLFVLFIL | 0.263 ± 0.005 |

| Sequence | protein stability index |
| --- | --- |
| FYACRLWLVSVR | 0.158 ± 0.007 |
| GACRVSSCVVVC | 0.316 ± 0.006 |
| GAFAGDVWRCVV | 0.154 ± 0.0073 |
| GALWVLGVVVGG | 0.329 ± 0.012 |
| GAVRRWGWVSFV | 0.173 ± 0.0068 |
| GAVVYGICFCTN | 0.35 ± 0.0049 |
| GCLVVVGFFSVF | 0.2 ± 0.011 |
| GCVLVFFLRLDL | 0.3466 ± 0.0014 |
| GFALGSFMLVLR | 0.596 ± 0.037 |
| GFCFVFVFQCFF | 0.267 ± 0.0043 |
| GFFFLFFVSAFI | 0.2992 ± 0.0012 |
| GFFFYFVLFGLS | 0.285 ± 0.011 |
| GFISKLIIKLAA | 0.269 ± 0.0091 |
| GFVLMLLVRFEL | 0.328 ± 0.011 |
| GGFRVLLWCVVW | 0.184 ± 0.0074 |
| GGGEGVVWVRLG | 0.116 ± 0.012 |
| GGGWCEMLIVVG | 0.324 ± 0.013 |
| GGRFVWIVRAVG | 0.233 ± 0.004 |
| GGRHYGILDLSL | 0.6927 ± 0.0056 |
| GGVSPRSSMDLL | 0.648 ± 0.0075 |
| GGVWVLGVAVVW | 0.207 ± 0.0064 |
| GGWSFSSLWKIA | 0.126 ± 0.013 |
| GIGVVWLDVFKT | 0.301 ± 0.024 |
| GIKLNVVYILLG | 0.34 ± 0.041 |
| GKHILLISLNIT | 0.246 ± 0.022 |
| GKVSSFVLFHIS | 0.202 ± 0.024 |

| Sequence | protein stability index |
| --- | --- |
| GLAVLSWLYIEL | 0.445 ± 0.019 |
| GLCFRVCIWVFV | 0.103 ± 0.016 |
| GLGWLLFVVERV | 0.34 ± 0.018 |
| GLSLLLLWFKVC | 0.0902 ± 0.0054 |
| GLSVFFFVGFIF | 0.306 ± 0.017 |
| GLVSCWIDPSMA | 0.597 ± 0.021 |
| GPCRPWIVVYAG | 0.295 ± 0.022 |
| GPWVIFSHLLLT | 0.258 ± 0.0084 |
| GRFGVGVVFRLA | 0.347 ± 0.032 |
| GRGRGGRWGRLC | 0.201 ± 0.023 |
| GRLRLGVLCGGV | 0.454 ± 0.0071 |
| GRVFSSFFLYIS | 0.14 ± 0.0057 |
| GRVYLLGLYMSF | 0.3887 ± 0.0029 |
| GSLGHCWFLFGV | 0.556 ± 0.064 |
| GSLHVISVVGML | 0.393 ± 0.0045 |
| GSVLWISCLIFC | 0.1641 ± 0.0013 |
| GTHWARLGWLLA | 0.161 ± 0.0026 |
| GVAFGLLVWLLG | 0.304 ± 0.02 |
| GVGAISLGFSWL | 0.652 ± 0.03 |
| GWLRHGWWRTVG | 0.152 ± 0.0082 |
| GWMLVVWCGVFG | 0.192 ± 0.011 |
| GYAFPPPHRVRT | 0.6865 ± 0.0043 |
| GYLVFTLRWLRG | 0.271 ± 0.026 |
| GYTVYARRLIMC | 0.0746 ± 0.0026 |
| GYVVYRRYILIR | 0.219 ± 0.0094 |
| HCSRMIIIFLFL | 0.303 ± 0.061 |
